# In patent US20040210040A1 (PDL BIOPHARMA, published 2004):
# T1: recombinant soluble human amphiregulin (human, UniProt P15514 101-198, limits assumed)
# T1 construct: also called AR; human AR
# T1 sequence: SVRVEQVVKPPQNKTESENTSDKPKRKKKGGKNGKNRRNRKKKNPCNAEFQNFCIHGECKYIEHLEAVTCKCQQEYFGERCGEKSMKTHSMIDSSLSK
# Columns and labels:
# [1] = target: T1, recombinant soluble human amphiregulin; experiment: SPR (BIAcore 3000)
# Procedure: (§1) Affinities between human amphiregulin (AR) and PAR34 or HuPAR34 were analyzed using BIAcore 3000 (BLAcore, Sweden).
# (§2) The BIAcore analysis may be conducted according to the following protocol. PAR34 or HuPAR34 is immobilized on the Pioneer F1 chip using standard amine coupling kit (BIAcore). Surface plasmon resonance is measured at a flow rate of 50 μl/min at 24° C. Injection of AR (association phase) occurs over 180 seconds. Dissociation is subsequently monitored over 3 hours. Kinetics of binding (ka and kd) are calculated from data acquired at five different concentrations of analyte (320 nM, 160 nM, 80 nM, 40 nM, 20 nM), using the BIAevaluation program. Double-referencing is applied to eliminate responses from reference surface and buffer only control. The binding affinity, KD, is obtained by simultaneously fitting the association and dissociation phases of the sensorgram from the analyte concentration series.
# [2] = target: T1, recombinant soluble human amphiregulin; experiment: cell-based or functional assay
# [3] = target: T1, recombinant soluble human amphiregulin; experiment: competition ELISA against biotinylated PAR34, Exp. A
# Procedure: (§3) The affinity of HuPAR34 to human amphiregulin was analyzed by competition ELISA. MaxiSorp ELISA plates (Nalge Nunc International) were coated overnight at 4° C. with 100 μl/well of 0.5 μg/ml recombinant soluble human amphiregulin in 0.2 M sodium carbonate-bicarbonate buffer, pH 9.4, washed with Wash Buffer (PBS containing 0.1% Tween 20), and blocked for 15 min at room temperature with 200 μl/well of SuperBlock Blocking Buffer in TBS (Pierce Chemical Company). After washing with Wash Buffer, a mixture of biotinylated PAR34 (0.125 μg/ml final concentration) and competitor antibody (PAR34 or HuPAR34 starting at 75 μg/ml final concentration and serially diluted 3-fold) in 100 μl/well of ELISA buffer was added in triplicate. As a control, 100 μl/well of 75 μg/ml of humanized anti-CD33 IgG1/κ monoclonal antibody HuM195 (Co, M. S. et al., J. Immunol., 148: 1149-1154 (1992)) in ELISA buffer was used. As a no-competitor control, 100 μl/well of ELISA Buffer was used. After incubating the plates for 1 hr and washing with Wash Buffer, bound antibodies were detected using 100 μl/well of 1 μg/ml HRP-conjugated streptavidin (Pierce Chemical Company) in ELISA buffer. After incubating for 0.5 hr at room temperature and washing with Wash Buffer, color development was performed by adding 100 μl/well of ABTS substrate (KPL, Inc.). […] Absorbance was read at 415 nm. […]
# [4] = target: T1, recombinant soluble human amphiregulin; experiment: competition ELISA against biotinylated PAR34, Exp. B
# Procedure: as §3
# [5] = target: T1, recombinant soluble human amphiregulin; experiment: competition ELISA against biotinylated PAR34, Exp. C
# Procedure: as §3
# [6] = target: T1, recombinant soluble human amphiregulin; experiment: competition ELISA against biotinylated PAR34, Exp. D
# Procedure: as §3
# [7] = target: T1, recombinant soluble human amphiregulin; experiment: SPR (BIAcore 3000), antibody immobilized, AR as analyte
# Procedure: as §1, §2
# [8] = target: T1, recombinant soluble human amphiregulin; experiment: competition ELISA against biotinylated PAR34, average of Exp. A-D
# Procedure: as §3
# [9] = target: T1, recombinant soluble human amphiregulin; experiment: competition ELISA on coated recombinant soluble human amphiregulin, competitor against biotinylated PAR34, Exp. A
# Procedure: as §3
# [10] = target: T1, recombinant soluble human amphiregulin; experiment: competition ELISA on coated recombinant soluble human amphiregulin, competitor against biotinylated PAR34, Exp. B
# Procedure: as §3
# [11] = target: T1, recombinant soluble human amphiregulin; experiment: competition ELISA on coated recombinant soluble human amphiregulin, competitor against biotinylated PAR34, Exp. C
# Procedure: as §3
# [12] = target: T1, recombinant soluble human amphiregulin; experiment: competition ELISA on coated recombinant soluble human amphiregulin, competitor against biotinylated PAR34, Exp. D
# Procedure: as §3
# [13] = target: T1, recombinant soluble human amphiregulin; experiment: competition ELISA on plate-coated recombinant soluble human amphiregulin; competes with biotinylated PAR34
# Procedure: as §3
# [14] = target: T1, recombinant soluble human amphiregulin; experiment: competition ELISA on coated recombinant soluble human amphiregulin, competitor against biotinylated PAR34, average of Exp. A-D
# Procedure: as §3
"fold difference of affinity, HuPAR34 against PAR34 [1] [fold]",IC50 of inhibition of AR-mediated proliferation in 3T3 cells [2] [µg/mL],"fold difference of IC50, HuPAR34 against PAR34 [3] [fold]","fold difference of IC50, HuPAR34 against PAR34 [4] [fold]","fold difference of IC50, HuPAR34 against PAR34 [5] [fold]","fold difference of IC50, HuPAR34 against PAR34 [6] [fold]",Kd [7] [nM],koff [7] [s⁻¹],kon [7] [M⁻¹ s⁻¹],"fold difference of IC50, HuPAR34 against PAR34 [8] [fold]",IC50 [9] [µg/mL],IC50 [10] [µg/mL],IC50 [11] [µg/mL],IC50 [12] [µg/mL],IC50 (read off the curve) [13] [µg/mL],IC50 [14] [µg/mL],Binder
≤ 2,0.055,2.4,1.4,1.4,2,0.53,0.00823,1.26e+07,1.8,1.95,1.11,1.76,2.76,~2,1.9,"HuPAR34 (humanized PAR34, IgG1/kappa) (antibody, V domains shown) VH: EVQLVQSGAEVKKPGASVKISCKVSGYAFTNYNMYWVRQAPGKGLEWIGYIDPYYGDPGYSQKFKGKATLTVDKSTSTAYMELSSLRSEDTAVYYCARRGNFPYYFDYWGQGTLVTVSS VL: DIQMTQSPSSLSASVGDRVTITCKASQDINSYLSWFQQKPGKAPKTLIYRANRLVDGVPSRFSGSGSGQDYTLTISSLQPEDFATYYCLQYDEFPYTFGGGTKVEIK"
–,0.025,–,–,–,–,0.41,0.024,4.8e+07,–,0.82,0.78,1.3,1.39,~1,1.07,"PAR34 (murine anti-amphiregulin monoclonal antibody) (antibody, mouse IgG2b, V domains shown) VH: EIQLQQSGPELVKPGASVKVSCKASGYAFTNYNMYWVKQSHGKSLEWIGYIDPYYGDPGYSQKFKGKATLTVDKSSSTAYMHLNSLTSEDSAVYYCARRGNFPYYFDYWGQGTTLTVSS VL: DIKMTQSPSSMYASLGERVTITCKASQDINSYLSWFQQKPGKSPKTLIYRANRLVDGVPSRFSGSGSGQDYSLTISSLEYEDMGIYYCLQYDEFPYTFGGGTKLEIK"
